Laboratory results published in IntAct's records for PubMed 25910212.

B1: U4/U6 small nuclear ribonucleoprotein Prp31 (Homo sapiens), Q8WWY3 (parent)
chain: MSLADELLADLEEAAEEEEGGSYGEEEEEPAIEDVQEETQLDLSGDSVKTIAKLWDSKMFAEIMMKIEEYISKQAKASEVMGPVEAAPEYRVIVDANNLTVEIENELNIIHKFIRDKYSKRFPELESLVPNALDYIRTVKELGNSLDKCKNNENLQQILTNATIMVVSVTASTTQGQQLSEEELERLEEACDMALELNASKHRIYEYVESRMSFIAPNLSIIIGASTAAKIMGVAGGLTNLSKMPACNIMLLGAQRKTLSGFSSTSVLPHTGYIYHSDIVQSLPPDLRRKAARLVAAKCTLAARVDSFHESTEGKVGYELKDEIERKFDKWQEPPPVKQVKPLPAPLDGQRKKRGGRRYRKMKERLGLTEIRKQANRMSFGEIEEDAYQEDLGFSLGHLGKSGSGRVRQTQVNEATKARISKTLQRTLQKQSVVYGGKSTIRDRSSGTASSVAFTPLQGLEIVNPQAAEKKVAEANQKYFSSMAEFLKVKGEKSGLMST
partner: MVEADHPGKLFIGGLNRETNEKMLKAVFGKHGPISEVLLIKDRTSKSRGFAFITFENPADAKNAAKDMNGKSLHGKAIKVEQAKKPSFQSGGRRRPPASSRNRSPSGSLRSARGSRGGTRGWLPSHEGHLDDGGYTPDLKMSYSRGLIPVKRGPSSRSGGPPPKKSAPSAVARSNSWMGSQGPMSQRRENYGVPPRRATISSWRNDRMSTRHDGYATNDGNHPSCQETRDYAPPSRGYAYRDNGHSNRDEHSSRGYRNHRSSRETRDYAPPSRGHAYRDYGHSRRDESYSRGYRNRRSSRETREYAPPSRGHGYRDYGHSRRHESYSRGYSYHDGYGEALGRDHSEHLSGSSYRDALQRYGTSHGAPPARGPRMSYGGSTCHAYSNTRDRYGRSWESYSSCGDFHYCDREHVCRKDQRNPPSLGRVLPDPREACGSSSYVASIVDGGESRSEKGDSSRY
B2: Serotonin N-acetyltransferase (Homo sapiens), Q16613 (parent)
chain: MSTQSTHPLKPEAPRLPPGIPESPSCQRRHTLPASEFRCLTPEDAVSAFEIEREAFISVLGVCPLYLDEIRHFLTLCPELSLGWFEEGCLVAFIIGSLWDKERLMQESLTLHRSGGHIAHLHVLAVHRAFRQQGRGPILLWRYLHHLGSQPAVRRAALMCEDALVPFYERFSFHAVGPCAITVGSLTFMELHCSLRGHPFLRRNSGC
B3: ATP synthase mitochondrial F1 complex assembly factor 2 (Homo sapiens), Q8N5M1 (parent)
chain: MWRSCLRLRDGGRRLLNRPAGGPSASMSPGPTIPSPARAYAPPTERKRFYQNVSITQGEGGFEINLDHRKLKTPQAKLFTVPSEALAIAVATEWDSQQDTIKYYTMHLTTLCNTSLDNPTQRNKDQLIRAAVKFLDTDTICYRVEEPETLVELQRNEWDPIIEWAEKRYGVEISSSTSIMGPSIPAKTREVLVSHLASYNTWALQGIEFVAAQLKSMVLTLGLIDLRLTVEQAVLLSRLEEEYQIQKWGNIEWAHDYELQELRARTAAGTLFIHLCSESTTVKHKLLKE
partner: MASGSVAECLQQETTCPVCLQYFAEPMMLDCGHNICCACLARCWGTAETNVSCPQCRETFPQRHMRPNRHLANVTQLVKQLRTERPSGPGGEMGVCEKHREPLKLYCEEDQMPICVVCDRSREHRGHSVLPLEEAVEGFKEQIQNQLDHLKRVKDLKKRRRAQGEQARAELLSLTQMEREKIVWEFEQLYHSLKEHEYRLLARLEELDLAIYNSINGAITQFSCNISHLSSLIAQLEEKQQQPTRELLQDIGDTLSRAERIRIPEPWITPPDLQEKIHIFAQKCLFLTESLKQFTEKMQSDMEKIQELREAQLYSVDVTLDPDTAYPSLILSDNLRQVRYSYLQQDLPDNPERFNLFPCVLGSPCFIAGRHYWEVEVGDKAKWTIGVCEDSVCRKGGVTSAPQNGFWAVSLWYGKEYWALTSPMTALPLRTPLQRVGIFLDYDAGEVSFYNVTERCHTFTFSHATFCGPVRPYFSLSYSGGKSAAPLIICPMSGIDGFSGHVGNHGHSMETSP
B4: 2'-5'-oligoadenylate synthase 1 (Homo sapiens), P00973-2 (parent)
chain: MMDLRNTPAKSLDKFIEDYLLPDTCFRMQINHAIDIICGFLKERCFRGSSYPVCVSKVVKGGSSGKGTTLRGRSDADLVVFLSPLTTFQDQLNRRGEFIQEIRRQLEACQRERAFSVKFEVQAPRWGNPRALSFVLSSLQLGEGVEFDVLPAFDALGQLTGGYKPNPQIYVKLIEECTDLQKEGEFSTCFTELQRDFLKQRPTKLKSLIRLVKHWYQNCKKKLGKLPPQYALELLTVYAWERGSMKTHFNTAQGFRTVLELVINYQQLCIYWTKYYDFKNPIIEKYLRRQLTKPRPVILDPADPTGNLGGGDPKGWRQLAQEAEAWLNYPCFKNWDGSPVSSWILLVRPPASSLPFIPAPLHEA
partner: B3 partner
B5: Emerin (Homo sapiens), P50402 (parent)
chain: MDNYADLSDTELTTLLRRYNIPHGPVVGSTRRLYEKKIFEYETQRRRLSPPSSSAASSYSFSDLNSTRGDADMYDLPKKEDALLYQSKGYNDDYYEESYFTTRTYGEPESAGPSRAVRQSVTSFPDADAFHHQVHDDDLLSSSEEECKDRERPMYGRDSAYQSITHYRPVSASRSSLDLSYYPTSSSTSFMSSSSSSSSWLTRRAIRPENRAPGAGLGQDRQVPLWGQLLLFLVFVIVLFFIYHFMQAEEGNPF
partner: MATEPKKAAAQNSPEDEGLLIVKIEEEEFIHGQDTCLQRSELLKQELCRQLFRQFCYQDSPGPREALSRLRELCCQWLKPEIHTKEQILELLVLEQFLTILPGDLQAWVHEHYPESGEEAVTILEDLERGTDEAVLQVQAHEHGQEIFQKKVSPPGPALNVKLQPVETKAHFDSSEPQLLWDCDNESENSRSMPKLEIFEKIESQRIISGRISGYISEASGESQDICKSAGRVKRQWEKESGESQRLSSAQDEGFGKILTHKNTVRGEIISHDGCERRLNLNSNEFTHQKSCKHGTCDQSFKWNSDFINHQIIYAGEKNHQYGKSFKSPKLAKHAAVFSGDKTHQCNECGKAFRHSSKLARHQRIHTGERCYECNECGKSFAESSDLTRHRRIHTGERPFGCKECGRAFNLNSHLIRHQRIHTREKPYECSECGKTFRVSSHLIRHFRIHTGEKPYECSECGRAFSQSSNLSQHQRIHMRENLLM

Variants of: B1
Details: with RBMY1A1, P0DJD3-2

| Variant | effect of a mutation on the interaction |
| --- | --- |
| L107V | with no effect |

Variants of: B2
Details: with bhe40_human BHLHE40, O14503
Chain of bhe40_human BHLHE40, O14503 (O14503 whole entry): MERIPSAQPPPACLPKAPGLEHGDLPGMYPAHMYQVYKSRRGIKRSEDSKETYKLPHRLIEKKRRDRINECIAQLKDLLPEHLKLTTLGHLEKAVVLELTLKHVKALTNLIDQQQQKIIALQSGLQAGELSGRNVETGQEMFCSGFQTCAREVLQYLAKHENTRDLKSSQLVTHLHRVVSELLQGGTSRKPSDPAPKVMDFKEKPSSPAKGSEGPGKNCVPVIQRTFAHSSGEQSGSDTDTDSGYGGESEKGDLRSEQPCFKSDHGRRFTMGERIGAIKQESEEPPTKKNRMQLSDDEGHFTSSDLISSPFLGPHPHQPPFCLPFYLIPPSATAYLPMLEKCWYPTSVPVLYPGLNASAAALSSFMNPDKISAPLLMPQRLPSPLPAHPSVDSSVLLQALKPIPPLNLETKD

| Variant | effect of a mutation on the interaction |
| --- | --- |
| T3M | with no effect |
| A129T | disrupting interaction strength |

Variants of: B2
Details: with mdfi_human MDFI

| Variant | effect of a mutation on the interaction |
| --- | --- |
| T3M | with no effect |
| A129T | with no effect |

Variants of: B3
Details: with tri27_human TRIM27, P14373

| Variant | effect of a mutation on the interaction |
| --- | --- |
| W94R | disrupting interaction strength |

Variants of: B4
Details: with tri27_human TRIM27, P14373

| Variant | effect of a mutation on the interaction |
| --- | --- |
| R242Q | with no effect |

Variants of: B5
Details: with zn165_human ZNF165, P49910

| Variant | effect of a mutation on the interaction |
| --- | --- |
| P183T | with no effect |
| P183H | with no effect |
| D72V | with no effect |
